Reference: US11155602B2, “Polypeptides targeting HIV fusion” (priority 2015, dated 2021)

B1: 254 (protein)
chain: MGHHHHHHGGSVSDVPRDLEVVAATPTSLLISWEYKVDSYRYYRITYGETGGNSPVQEFTVPSVLSTATISGLKPGVDYTITVYAVTYGDDSAPISINYRTEID
modifications: Adnectin
B2: 259 (protein)
chain: MGHHHHHHGGSVSDVPRDLEVVAATPTSLLISWEYKVHPYRYYRITYGETGGNSPVQEFTVPSVLSTAKISGLKPGVDYTITVYAVTYGDDSAPISINYRTEID
modifications: Adnectin
B3: 255 (protein)
chain: MGHHHHHHGGSVSDVPRDLEVVAATPTSLLISWEYKVHPYRYYRITYGETGGNSPVQEFTVPSVLSTATISGLKPGVDYTITVYAVTYGDDSAPISINYRTEID
modifications: Adnectin
B4: 262 (protein)
chain: MGHHHHHHGGSVSDVPRDLEVVAATPTSLLISWEYKVDGWRYYRITYGETGGNSPVQEFTVPSVLSTATISGLKPGVDYTITVYAVTYGDDSAPISINYRTEID
modifications: Adnectin
B5: 270 (protein)
chain: MGHHHHHHGGSVSDVPRDLEVVAATPTSLLISWEYKVAPYRYYRITYGETGGNSPVQEFTVPSVLSTATISGLKPGVDYTITVYAVTYGDDSAPISINYRTEID
modifications: Adnectin
B6: 275 (protein)
chain: MGHHHHHHGGSVSDVPRDLEVVAATPTSLLISWEYKVHPYRYYRITYGETGGNSPVQSFTVPSVLSTATISGLKPGVDYTITVYAVTYGADSAPISINYRTEID
modifications: Adnectin
B7: 261 (protein)
chain: MGHHHHHHGGSVSDVPRDLEVVAATPTSLLISWEYKVAPWRYYRITYGETGGNSPVQEFTVPSVLSTATISGLKPGVDYTITVYAVTYGDDSAPISINYRTEID
modifications: Adnectin
B8: 267 (protein)
chain: MGHHHHHHGGSVSDVPRDLEVVAATPTSLLISWEYKVHPYRYYRITYGETGGNSPVQDFTVPSVLSTATIRGLKPGVDYTITVYAVTYGDDSAPISINYRTEID
modifications: Adnectin
B9: 269 (protein)
chain: MGHHHHHHGGSVSDVPRDLEVVAATPTSLLISWEYKVHPYRYYRITYGETGGNSPVQAFTVPSVLSTATISGLKPGVDYTITVYAVTYGDDSAPISINYRTEID
modifications: Adnectin
B10: 272 (protein)
chain: MGHHHHHHGGSVSDVPRDLEVVAATPTSLLISWEYKVDTYRYYRITYGETGGNSPVQEFTVPSVLSTATISGLKPGVDYTITVYAVTYGDDSAPISINYRTEID
modifications: Adnectin
B11: 263 (protein)
chain: MGHHHHHHGGSVSDVPRDLEVVAATPTSLLISWEYKVDTWRYYRITYGETGGNSPVQEFTVPSVLSTATISGLKPGVDYTITVYAVTYGDDSAPISINYRTEID
modifications: Adnectin
B12: 277 (protein)
chain: MGHHHHHHGGSVSDVPRDLEVVAATPTSLLISWEYKVHPYRYYRITYGETGGNSPVQDFTVPSVLSTATISGLKPGVDYTITVYAVTYGDDSAPISINYRTEID
modifications: Adnectin
B13: 278 (protein)
chain: MGHHHHHHGGSVSDVPRDLEVVAATPTSLLISWEYKVARWRYYRITYGETGGNSPVQEFTVPSVLSTATISGLKPGVDYTITVYAVTYGDDSAPISINYRTEID
modifications: Adnectin
B14: 266 (protein)
chain: MGHHHHHHGGSVSDVPRDLEVVAATPTSLLISWEYKVHPYRYYRITYGETGGNSPVQEFTVPSVLSTATISGLKPGVDYTITVYAVTRGDDSAPISINYRTEID
modifications: Adnectin
B15: 273 (protein)
chain: MGHHHHHHGGSVSDVPRDLEVVAATPTSLLISWEYEVHPYRYYRITYGETGGNSPVQEFTVPSVLSTATISGLKPGVDYTITVYAVTYGDDSAPISINYRTEID
modifications: Adnectin
B16: 256 (protein)
chain: MGHHHHHHGGSVSDVPRDLEVVAATPTSLLISWEYKVHPYRYYRITYGETGGNSPVQEFTVPSVLSTATISGLKPGVDYTITVYAVTYGDASAPISINYRTEID
modifications: Adnectin
B17: 276 (protein)
chain: MGHHHHHHGGSVSDVPRDLEVVAATPTSLLISWEYKVHPYRYYRITYGETGGNSPVQEFTVPSVLSTATIRGLKPGVDYTITVYAVTYGDDSAPISINYRTEID
modifications: Adnectin
B18: 271 (protein)
chain: MGHHHHHHGGSVSDVPRDLEVVAATPTSLLISWEYKVDGYRYYRITYGETGGNSPVQEFTVPSVLSTATISGLKPGVDYTITVYAVTYGDDSAPISINYRTEID
modifications: Adnectin
B19: 257 (protein)
chain: MGHHHHHHGGSVSDVPRDLEVVAATPTSLLISWEYKVHPYRYYRITYGETGGNSPVQEFTVPSVLSTATISGLKPGVDYTITVYAVTNGDDSAPISINYRTEID
modifications: Adnectin
B20: 260 (protein)
chain: MGHHHHHHGGSVSDVPRDLEVVAATPTSLLISWEYKVHPYRYYRITYGETGGNSPVQEFRVPSVLSTATISGLKPGVDYTITVYAVTYGDDSAPISINYRTEID
modifications: Adnectin
B21: 265 (protein)
chain: MGHHHHHHGGSVSDVPRDLEVVAATPTSLLISWEYKVHPYRYYRITYGETGGNSPVQEFTVPSVLSTATISGLKPGVDYTITVYAVTYGADSAPISINYRTEID
modifications: Adnectin
B22: 274 (protein)
chain: MGHHHHHHGGSVSDVPRDLEVVAATPTSLLISWEYRVHPYRYYRITYGETGGNSPVQEFTVPSVLSTATISGLKPGVDYTITVYAVTYGDDSAPISINYRTEID
modifications: Adnectin
B23: 258 (protein)
chain: MGHHHHHHGGSVSDVPRDLEVVAATPTSLLISWEYKVHPYRYYRITYGETGGNSPVQEFTVPSVLSSATIRGLKPGVDYTITVYAVTYGDDSAPISINYRTEID
modifications: Adnectin
B24: 129 (protein)
chain: MGVSDVPRDLEVVAATPTSLLISWEYKVHPYRYYRITYGETGGNSPVQEFTVPSVLSSAEISGLKPGVDYTITVYAVTYGIDSPPISINYRTEIDKPSQHHHHHH
modifications: Adnectin
B25: 128 (protein)
chain: MGHHHHHHGGVSDVPRDLEVVAATPTSLLISWEYKVHPYRYYRITYGETGGNSPVQEFTVPSVLSSAEISGLKPGVDYTITVYAVTYGIDSSPISINYRTPGG
modifications: Adnectin

These molecules were tested on NL-Rluc virus (assay: Combinectin potency assay: antiviral EC50, NL-Rluc virus in MT-2 cells, luciferase readout). Conditions: Anti-N17 Adnectin, Table 3.
Assay type: cell-based, HIV-1
Procedure, shortened: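 MT-2 cells infected with replication-competent NL-Rluc HIV (nef replaced by Renilla luciferase) at MOI 0.01 for 1 h, then added to threefold-diluted peptides (11 concentrations, triplicate). After 4–5 days, luciferase measured by Dual Luciferase; EC50 relative to no-peptide wells.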
For B1, the EC50 was > 1000 nM. In the case of B2, the EC50 is reported as 135 nM. Molecule B3 has an EC50 of 136 nM. With B4 the EC50 was > 1000 nM. B5 was tested, and the EC50 was > 1000 nM. With B6 the EC50 was 180 nM. B7 was tested, and the EC50 was > 1000 nM. In the case of B8, the EC50 is reported as > 1000 nM. Molecule B9 has an EC50 of 184 nM. With B10 the EC50 was > 1000 nM. With B11 the EC50 was > 1000 nM. In the case of B12, the EC50 is reported as > 1000 nM. B13 was tested, and the EC50 was > 1000 nM. B14 was tested, and the EC50 was > 1000 nM. With B15 the EC50 was > 1000 nM. For B16, the EC50 was 170 nM. B17 showed an EC50 of 16 nM. With B18 the EC50 was > 1000 nM. In the case of B19, the EC50 is reported as > 1000 nM. With B20 the EC50 was 188 nM. B21 gave an EC50 of 63 nM. B22 was tested, and the EC50 was 115 nM. B23 showed an EC50 of 195 nM. B24 was tested, and the EC50 was 11 nM. Molecule B25 has an EC50 of 18 nM.
